Consider one protein from article PMC2736960, “Cloning and characterization of a glucosyltransferase from Crocus sativus stigmas involved in flavonoid glucosylation” (BMC Plant Biology, 2009).

Holding throughout (format): biochemical, Crocus sativus
Substrate in the series “HPLC of glucoside formed”: O=c1ccn([C@@H]2O[C@H](CO[P@@](=O)(O)O[P@@](=O)(O)O[C@H]3O[C@H](CO)[C@@H](O)[C@H](O)[C@H]3O)[C@@H](O)[C@H]2O)c(=O)[nH]1
In words: HPLC of glucoside formed. Conditions: constant kaempferol as acceptor (level not given).

Substrate in series [1]: O=c1c(O)c(-c2ccc(O)c(O)c2)oc2cc(O)cc(O)c12
In words: HPLC of glucoside formed, Lineweaver-Burk. The note with it: 7-O-glucoside formation (preferred position), 2.5 mM UDP-glucose, 50 mM Tris-HCl pH 7.5, 14 mM 2-mercaptoethanol, 30°C. From the text: (§1) HPLC of glucoside formed, Lineweaver-Burk on CsGT45

Substrate in series [2]: O=c1c(O)c(-c2ccc(O)cc2)oc2cc(O)cc(O)c12
In words: HPLC of glucoside formed, Lineweaver-Burk. Conditions: 7-O-glucoside formation, 2.5 mM UDP-glucose, 50 mM Tris-HCl pH 7.5, 14 mM 2-mercaptoethanol, 30°C.
Text: as §1

B1: CsGT45 (Crocus sativus) (protein)
chain: MEQHQPNILVVTYPAQGHINPALHLAKHLAADTKGLLITFSTAISAHRKMFPESTEPDQEVEDGPITYIPFSDGYDDGFQRDKHDGKQFRSRFKTVGSNTLSAIIQNLEHRGRKVSCVIYTFFVSWAADVARQHAIPSVQYWIQPATVFAIYYHYFHGYESVVAAHSHDPSYPINLPGLSPVQVRDLPSFLTIKPDDPYAVVLSMIRDSFEGLDREETKTKVLVNTFGQLEADAILAVDKMDIIPVGPILPCKGGVSRGDLLKEDEKGYMEWLDSKPENSVVYVSLESLAVLKKQQKFLILKGLKDSGRPYLWVVRRDSGLEGVELGDWDGDGDGDNGMVVGWCSQVSVLSHPSVGCFVTHCGWNSTMESLASGVPTIGVPQWSDQPTCAALAEKDWGIGVRSEVNGDGILEGGELKRCLDLVLGDGERGVEIRRKVEFWKDKATEAISFGGSSDKNLRTFVDQITGYDPNVSSVGFWKDKAIHRQHCEESESASPS
Regarding B1, the Michaelis-Menten constant (Km) (commonly the concentration of substrate that gives half-maximal velocity) came out at 600 µM in “HPLC of glucoside formed”, 21.50 ± 2.3 µM in series [1] and 15.6 ± 1.2 µM in series [2].
